T1: FGFR1-DIII (Homo sapiens, UniProt P11362)
T1 construct: The FGFR1 extracellular domain has DII and DIII domains; made in house; host or cells: AAVpro293T cells
T1 sequence (P11362 255-357 limits assumed): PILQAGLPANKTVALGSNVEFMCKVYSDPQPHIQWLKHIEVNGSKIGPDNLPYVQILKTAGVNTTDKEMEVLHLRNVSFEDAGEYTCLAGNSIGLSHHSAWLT

B1: VHH Clone #2: alpaca-derived VHH single-domain antibody (monomer) binding FGFR1, amino acid sequence SEQ ID NO: 18 (protein)
VHH: QVQLVESGGGLVQAGGSLRLSCAVPGSIFRFNTMGWYRQPPGKQRELVAQMSRGGITKYGDSVKGRFTITRDNAKNTVHLQMNSLKPEDTAVYYCAGSYYSGSYYYPSPQGFSVWGQGTQVTVSP
modifications: VHH_Clone_#2
B2: VHH Clone #1: alpaca-derived VHH single-domain antibody (monomer) binding FGFR1, amino acid sequence SEQ ID NO: 17 (protein)
VHH: QLQLVESGGGSVQAGGSLRLSCAASRSLSRFNVWTWYRQAPVKQRELVASITKSGDTNYAESVKGRFIISRDDDKNTVYLQMNNLKSEDTGIYYCAGSYYSGSYLYPSPGGFSVWGQGTQVTVSS
modifications: VHH_Clone_#1

Tests used:
[1] = test system: NIH3T3 (mouse fibroblast cell line); test: Cell growth assay with NIH3T3 (Cell Titer Glo luminescence); assay type: cell-based
Description: As a cell for measuring a cell growth activity, NIH3T3 (mouse fibroblast cell line) was obtained from ECACC through a domestic agent. The cell which was subjected to extended culture according to an ordinary method, and then freeze-preserved at −80° C. using CellBankeR1 plus (manufactured by Xenoac Co., Ltd.) was used. […]
The cell growth assay for FGF2 was performed according to the following procedure. […] The plate was further left to stand for 8 minutes, and then the luminescence in each well was measured with a Synergy HTX plate reader (manufactured by BioTek) with a sensitivity set (Gain) of 200 and a measurement time of 1 s/well.
The measurement was performed at three points at each concentration of the test substance, for the measurement at a single concentration, 100 ng/ml of FGF2 was used as a positive control and a condition of no addition was used as a negative control, and the VHH monomer was prepared with uniform 100-fold dilution, and measured. […] EC50 measurement data were obtained according to an ordinary method using a control software attached to a plate reader. The EC50 value was calculated by applying the 4-parameter fit.
Each stock of the VHH monomer (Clone #1: 2.65 mg/mL; Clone #2: 0.82 mg/mL-PBS) was diluted 100-fold to check the presence or absence of the cell growth activity. […] The vertical axis in FIG. 15 indicates a relative luminescence amount. […]

[2] = target: T1, FGFR1-DIII; test: Binding activity by biolayer interference (BLI) to FGFR1-DIII; conditions: 1:1 binding model
Description: The FGFR1 extracellular domain has DII and DIII domains. Each of an FGFR1 extracellular domains (hereinafter may be abbreviated as “FGFR1-DIIDIII”, “FGFR1-DII”, or “FGFR1-DIII”) was expressed using AAVpro293T cells as follows, these domains were purified, and an affinity measurement test with VHH Clone #1 was performed by a biolayer interference (BLI) method.
The binding activities of FGFR1-DIIDIII, FGFR1-DII, and FGFR1-DIII to VHH Clone #1 were measured by a biolayer interference method (hereinafter sometimes abbreviated as “BLI”). In BLI, using Octet 384 (manufactured by Fortebio), VHH Clone #1 diluted with a kinetics buffer (0.05% Tween20-containing PBS, pH 7.4) was immobilized on an Anti-Penta-HIS (HIS1K, manufactured by Fortebio) sensor chip, and bound to FGFR1-DIIDIII, FGFR1-DII, and FGFR1-DIII, which had been adjusted from 100 nM in 2-fold serial dilutions, and the dissociation rate was measured.
In the preparation for measurement, a tip of the sensor chip was immersed in 200 μL of the kinetics buffer for 10 minutes in order to hydrate the sensor chip. […]
After completion of the measurements, the measured value of a Reference (only the kinetics buffer) was subtracted from the actual measurement value, and Global Fitting was performed using a 1:1 binding model using Octet software to calculate the binding activity (FIG. 22).

Molecule | cell growth activity (relative luminescence amount, RLU) ([1]; NIH3T3, serum-free, 2 days, 4-fold dilution series, compared with FGF2) | cell growth activity of VHH monomer (relative luminescence amount) ([1]; NIH3T3, stock diluted 100-fold (Clone #2: 8.20 μg/mL)) | Koff [2] | Kon [2]
B1 | relative luminescence amount was low even at a high concentration | significantly exhibited a cell growth activity |  | 
B2 |  |  | 0.000351 s⁻¹ | 298000 M/s
